The values that follow come from the DeepSol protein solubility set.

This data set can be described thus: soluble on expression in E. coli; label from the status in PepcDB or PDB records.
Take “SPNSQYLKTRILDIYTPEQRAGIEKSEDWRQFSRRMDTHFPKLMNELDSVYGNNEALLPMLEMLLAQAWQSYSQRNSSLKDIDIARENNPDWILSNKQVGGVCYVDLFAGDLKGLKDKIPYFQELGLTYLYLMPLFKCPEGKSDGGYAVSSYRDVNPALGTIGDLREVIAALHEAGISAVVDFIFNHTSNEHEWAQRCAAGDPLFDNFYYIFPDRRMPDQYDRTLREIFPDQHPGGFSQLEDGRWVWTTFNSFQWDLNYSNPWVFRAMAGEMLFLANLGVDILRMDAVAFIWKQMGTSCENLPQAHALIRAFNAVMRIAAPAVFFKSQAIVHPDQVVQYIGQDECQIGYNPLQMALLWNTLATREVNLLHQALTYRHNLPEHTAWVNYVRSHDDIGWTFADEDAAYLGISGYDHRQFLNRFFVNRFDGSFARGVPFQYNPSTGDCRVSGTAAALVGLAQDDPHAVDRIKLLYSIALSTGGLPLIYLGDEVGTLNDDDWSQDSNKSDDSRWAHRPRYNEALYAQRNDPSTAAGQIYQGLRHMIAVRQSNPRFDGGRLVTFNTNNKHIIGYIRNNALLAFGNFSEYPQTVTAHTLQAMPFKAHDLIGGKTVSLNQDLTLQPYQVMWLEIA”: the “soluble on expression in E. coli” value is listed as “soluble”. Next, “MGHHHHHHSHMVNKNAGETLLQRAARLGYEEVVLYCLENKICDVNHRDNAGYCALHEACARGWLNIVRHLLEYGADVNCSAQDGTRPLHDAVENDHLEIVRLLLSYGADPTLATYSGRTIMKMTHSELMEKFLTDYLN”: “not soluble”; “MADVEDGEETCALASHSGSSGSKSGGDKMFSLKKWNAVAMWSWDVECDTCAICRVQVMDACLRCQAENKQEDCVVVWGECNHSFHNCCMSLWVKQNNRCPLCQQDWVVQRIGKLEHHHHHH”: “soluble”; “MGSDKIHHHHHHMNLRNTAVFKFLVLTLGIISCQAYAEDTVIVNDHDISAIKDCWQKNSDDDTDVNVIKSCLRQEYNLVDAQLNKAYGEAYRYIEQVPRTGVKKPDTEQLNLLKKSQRAWLDFRDKECELILSNEDVQDLSDPYSESEWLSCMIIQTNTRTRQLQLYRNSEDFYPSPLTRG”: “not soluble”. On to “MSLNNHKHARLTRLGRALLVNRVMQQNWTMRQASQAAGVSLRTGYKWLARFRSEGLDGLLDRSSRPHRSPKACAPEQVEHFAQQRRQRLPLWRIAREAGRSLATVARYMERIGLSRLASLEPPAPVRRYERASPGELLHIDTKRLGRIRGVGHRITGDRAQNRNRGIGWDAVHLAIDDFSRVSFARILDDEGGDQCAEFLHQATAYYASLGVRIDRVMTDNGSGYVSRTFRAVCVELGIRHIRTRPYTPKTNGKAERLVQTCLREWAYARPYTSSAERQAALQPFIDRYNWCRPHSALGHQPPITRIPDVNNLLRIDSEGHHHHHH”, for which the “soluble on expression in E. coli” value is recorded as “not soluble”.

Consider “MSLDGGNSLFQLRKELYSTDNKLSSIDDDLSDRNTTEDLIMLPSSANSNFSSPYTSNNKYGNTKILTETEKYSVTKLSTDLSFLPGSNGNNNTIDTHHFEGLVDTALQKALVNDLDHIYIWNYNSIQKDTPICKISLHDDYSVLSSPPICLFTSSISSTNNDTANYNNNASGNINSGKFNNGICIINKKNSQFLYFEDISTINNLYTKLSKSKAHVLDLKLKDNENITSTINCEPSGIIIATSLGRVLFITIKDSTGKPKLELKQQLIKPQNSFFFRNLDSSKEIISLKKGPIVGKGERLLYITTRGGSLQIWQLSINSKSFKRLEINIYEHVLDSLQDLYPFAHGTLAFLDSHPIYSDTSSAHLTLASISNGNEIYYLMITVILDEKTNSFQIFSIYKLNTYFTKSTVDLNHKPQLFIPNALDSIVSPTLSVYVLFNNAVVMTQISSKLDSSFPLRRKWEDIIRFNKDVEIIGSGYSTDSIYVICKDMGVLKIASHSNNNQELELVSFVKSHIDQAVYFSTITSNEGHHHHHH”, for which the “soluble on expression in E. coli” value is reported as “soluble”. “MNDPLDSLSNDEFEIIETFDPETEDREDQWSIQQSIRIEPISIQMPNTLQSQRAPSPVGSKAPESLKDEDPDRTPEASIVETPLLTETLKEDRTPMSTPLASLVNSSQSPEFTLQNMSIVSESECSNNSSLVNVADVESTEIALRTSLLLVSELKSQLQAAKMSESTLLKSNSNHEIEENKKLSEKMEVMKNEFELKMQESAASVEKVIQEKDSAIEQLKVQLAQSQQVAELWKQGAEKNSNAQYSDSKTTIDRLLEENSKLRNLVDEEVARRLEESERRKLAEDQLKHARGGSVFDPPASFVASQLAERTTYSLNLEHELITLRKELEETKEALKKSVEESSNKDEIVSALHEDQQESTRMLASNEQVINSLKQKCRQLGVLEDFSS”: the “soluble on expression in E. coli” value is “soluble”. For “MFPSFITHIQSPNSHHHYSSPSFPFSSDFLESFDESFLINQFLLQQQDVAANVVESPWKFCKKLELKKKNEKCVDGSTSQEVQWRRTVKKRDRHSKICTAQGPRDRRMRLSLQIARKFFDLQDMLGFDKASKTIEWLFSKSKTSIKQLKERVAASEGGGKDEHLQVDEKEKDETLKLRVSKRRTKTMESSFKTKESRERARKRARERTMAKMKMRLFETSETISDPHQETREIKITNGVQLLEKENKEQEWSNTNDVHMVEYQMDSVSIIEKFLGLTSDSSSSSIFGDSEECYTSLSSVRGTISAAGNSNVLTKNPN”, the “soluble on expression in E. coli” value is “not soluble”. Turning to “MAPRQLAAADLAVGQVVAQREIRLDAQAFAQFAALTGDAHPIHYDAGYVQRQGLRAPIAHGLLLVAISALGATPLSAQLHDAMVAMVGVEAVFMRPVYVDETVQCVYRVAQIEHVAKGRSKTTIAVSIHTTDAPPDAARQAHCVVHLTFLLKTHLQGLEHHHHHH”, the “soluble on expression in E. coli” value is “not soluble”. Then “MDEFPPIFIISLKDSPRKNIIAERLNALGLSFNFFDAIYGKELSKKQLSEINYDFYIQKFNARKRLTLGEIGCAISHIKLYEYIVKNNINEAIILEDDAIVSIYFKDIICDALKKISCKYEILFLDHGKAKIFPFTRSLVERYRLAKYISPSKKSKRIIIRTTAYIITLNGARKLLNYAYPIRMPSDYLTGTLQLTGINAYGIEPPCVFGGPISEIDQIEDRYCLEHHHHHH”, with “not soluble”; and “MRGSHHHHHHGMASMTGGNNMGRDLYDDDDKDPGRRMMHNSNADDAALTTDVVVVGGGPVGLMLAGELRAGGVGALVLEKLVEPVGHDRAGALHIRTVETLDLRGLLDRFLEGTQVAKGLPFAGIFTQGLDFGLVDTRHPYTGLVPQSRTEALLAEHAREAGAEIPRGHEVTRLRQDAEAVEVTVAGPSGPYPVRARYGVGCDGGRSTVRRLAADRFPGTEATVRALIGYVTTPEREVPRRWERTPDGILVLAFPPEGGLGPGWSSSSTGHSPAADEGPVTLEDLGAAVARVRGTPLTLTEPVSWLSRFGDASRQAKRYRSGRVLLAGDAAHVHFPIGGQGLNTGLQDAVNLGWKLAARVRGWGSEELLDTYHDERHPVAERVLLNTRAQLALMRPDEQHTTPLRGFVEELLGTDEVNRYFTGMITGTDVRYATFAPAASARPHPWPGRFAGGLVLSRPSGEPVPVAELLRSARPLLLDLAGRADLREATRPWSDRVSVVAGEATVEPPAQALLVRPDGYVAWAGSPAATADELRASLARWFGPPANREPVGHQERAGRRGRPLSALKPE”, with “soluble”; and “GMTKIRKIAVFIEETRIEAGREISPPTRKAVAVAVIENPFAGRYVEDLTELMDTGAELGALLGERCVQALGIRPEQAESYGKSAMVGENGELEHAAAILHPKLGAPLRKAVEKGAALVPSSKKMGSPGQVLDVPLGHKDAAYVRSHFDGIEVRLNDAPRANEIMVAVAVTDSGRPLPRVGGLTHDAAEGKDGLR”, with “soluble”. Next, “FCGRARVHTDFTPSPYDTDSLKLKKGDIIDIISKPPMGTWMGLLNNKVGTFKFIYVDVLS”: “soluble”. Then “MSLKAEFLTPVVTIFDEEGNLDKEGNKKVYDHLIDGGVDGLVIMGSTGEFFNMSMDMQKELIDLVTSHVNKRVKVFIGTSRMCINESIELSNYAHNSGADGVMIISPYYFSLDDDSIELFYSEIAKNTEAEIYLYNYPDRTGYDLSPELTLRLARKHKNIVGYKDTVTLMGHTRDLINTMKIEFPEFKVYSGYDENFIHNLMSGGAGCIGGLSNLIPEVCSKWAEAYNNRDMEKVIEIQKYINKAMDFYLITNPFIPAMKKAMNIRGLQISDYMTAPFVKPNEKQVCEIKKLMNELNIEGHHHHHH”, with “soluble”; and “MSLGSNPPTKILDFLFLGGVSDATNPEFLRRENIVTILNVSREEYWSVDKGITIHPFPLEDNAEENIRKFFSHTYRLLEAARSSASPARPPCVLVHSRYGISRSVTIVLAYLMRRNGWSLNDALQYVMCRRPHVEPNVGFMNVLLSFQRDMDPQKRDIQRNEGHHHHHH”, with “not soluble”; and “MGSDKIHHHHHHMIEKPNAICLKNRKIIKVTGEEATHFLQALITTDVKKIGLQEIFPGALLSPQGKVLADFLIGKREDGYFIDIFSSLSDLLYKRLLLYKMRTKVEIMQPLQEFVTVSWENETDSLNFYSSFIDKRFPAKEKIIRIYGETPFLASECHDNWNRLRIRYAIPESDKDYEIGKVFPHDINYDQINGLAFNKGCYIGQEVVSRMHHRRAARRRILLVKSQHELIPGANIVAGTKILGSLGTCAANEALALMRIDHIKDAMDHNTPFTVKDVPVTISIAENMNFTFPESTV”, with “not soluble”.

Turning to “MGSDKIHHHHHHQEKVSSMSEKSAPGSIQQPTRAQQLMGDIDPKLAELTDKVLFGDVWERKQLSKRDRSLVTVAALISLNRPDQLRSHMALALQNGVTREELVETITQLAFYTGWPNAVSAVPVARDVFRAADAAASHPDQGAQAQDDRTITVIHAGSQPSTHGSADHFTGSVQVDSRFQAQAPARSGGGIVTFEPGARTAWHTHPLGQTLIVTAGIGLVQQWGGPVQVIKPGDIVWIPPGVKHWHGATRTSGMTHIAIAEALDGKSVDWMELVMDAQYLGGQPR”, the “soluble on expression in E. coli” value is “not soluble”. Then “MTKPSVGINGFGRIGRLVLRAAVEKDSVNVVAVNDPFISIDYMVYLFQYDSTHGRFKGTVAHEGDYLLVAKEGKSQHKIKVYNSRDPAEIQWGASGADYVVESTGVFTTIEKANAHLKGGAKKVIISAPSADAPMFVVGVNHEKYDHANDHIISNASCTTNCLAPLAKVINDNFGIIEGLMTTVHAVTATQKTVDGPSGKLWRDGRGAGQNIIPASTGAAKAVGKVIPELNGKLTGMAFRVPTPDVSVVDLTARLEKPASLDDIKKVIKAAADGPMKGILAYTEDQVVSTDFVSDTNSSIFDAGASISLNPHFVKLVSWYDNEFGYSNRVVDLISYIATKA”, with “soluble”; and “MFHCKGLYMSDQNDKLKNLKTSSMDRRLSIAKASLLAGTRWATASATSMFSSEAEKEKKRKKAMTEQANYLVSEIGKLKGSIVKIGQMMALYGEHFLPEEITQALNTLNNQTVALAWPAIKAHLQEQLGSKLDDLIIDHEPIGTASLAQVHRATRKSDGLELVLKIQYPGVAEAIDSDMSLFKNMLKLTRMVPQTREFDQWFDEVREMMHREVSYDIEAATTRRFAERLKTDPRYAVPQIIDAYCTTKILCMTFERGVPINSPVMLSLPQERRNKLGEASLEIAVREIFEWGEMQTDPNFGNYLVRLGNGTDIQDKIVLLDFGAIRQFDEHLLSVARNLIRAGYNHSNEEMVRAMTGYSFFDSIPESIKPDMAKVFLLATEAFSCPENNPDMPTGLMDEDNRYDWKKSQLHSRVMQQASKSMASRYFSVPPKEFMFISRKFIGAYTFMTVIEAKTNVRRMISHFVKLEHHHHHH”, with “not soluble”.
